Series [1] relates to trypsin. Briefly: Peptidolytic activity of trypsin (α-benzoylarginine-para-nitroanilide, 405 nm). It is filed as biochemical. From the text:
(§1) Determining the enzyme activities: L-asparaginase catalyzes the deamidation of L-asparagine to form L-aspartic acid. In order to determine the enzyme activity, ammonium which was being released in this reaction was quantified using Neβler reagent. Streptokinase activates plasminogen. Plasminogen which has been activated in this way catalyzes the hydrolysis of the tripeptide derivative D-Val-Leu-Lys-para-nitroanilide (S-2251). In order to indirectly determine the activity of streptokinase, the quantity of nitroaniline which was released was quantified photometrically at 405 nm. The para-nitroanilide derivative α-benzoylarginine-para-nitroanilide was used to determine the peptidolytic activity of trypsin, by photometrically quantifying the nitroaniline which was released at 405 nm.
Substance 16 (0.5 eq./1.5 μl, 1 eq./2.7 μl, 2 eq./5.4 μl, 5 eq./13.8 μl and, respectively, 10 eq./27.3 μl) dissolved in dimethyl sulfoxide (10 mg/ml) was added to 120 μl of a solution of trypsin (1.0 mg/ml) in sodium carbonate buffer (pH 8.5 to 9.5) and the mixture was made up to a total volume of 150 μl using sodium carbonate buffer (pH 8.5 to 9.5). The reaction mixture was incubated at 25° C. and 300 rpm for 1 h on a thermomixer. Excess substance 16 was then removed by means of filtration in centrifuge filtration units (10 kDa cut-off) using water as rinsing liquid.

The target in series [2] is T1, L-asparaginase (Escherichia coli, UniProt P00805).
T1 construct: purchased ProThera
As to the kind of experiment: L-asparaginase enzyme activity (ammonium released, quantified with Nessler reagent). It is filed as biochemical.
Text: as §1
Substance 16 (0.5 eq./0.7 μl, 1 eq./1.4 μl, 2 eq./2.7 μl, 5 eq./6.8 μl, 10 eq./13.7 μl and, respectively, 20 eq./27.3 μl) dissolved in dimethyl sulfoxide (10 mg/ml) was added to 75 μl of a solution of L-asparaginase (0.5 mg/ml) in sodium carbonate buffer (pH 8.5 to 9.5) and the mixture was made up to a total volume of 150 μl using sodium carbonate buffer (pH 8.5 to 9.5). The reaction mixture was incubated at 25° C. and 300 rpm for 1 h on a thermomixer. Excess substance 16 was then removed by means of filtration in centrifuge filtration units (10 kDa cut-off) using water as rinsing liquid.

This note sets out measurements from US20070060497A1, “Reagents for modifying biopharmaceuticals, the use and production thereof” (priority 2003, published 2007).

B1: conjugate composed of trypsin and substance 16: conjugate composed of the compound according to the invention substance 16 and trypsin (conjugate, UniProt P00760 24-246, looked up)
Serine protease 1: IVGGYTCGANTVPYQVSLNSGYHFCGGSLINSQWVVSAAHCYKSGIQVRLGEDNINVVEGNEQFISASKSIVHPSYNSNTLNNDIMLIKLKSAASLNSRVASISLPTSCASAGTQCLISGWGNTKSSGTSYPDVLKCLKAPILSDSSCKSAYPGQITSNMFCAGYLEGGKDSCQGDSGGPVVCSGKLQGIVSWGSGCAQKNKPGVYTKVCNYVSWIKQTIASN
modifications: conjugated to substance 16
notes: conjugate composed of the compound according to the invention substance 16 and trypsin
Regarding B1, the Residual activity came out at 104% in series [1] (0.5 eqs. of 16 employed); 109% in series [1] (1 eq. of 16 employed); 119% in series [1] (2 eqs. of 16 employed); 136% in series [1] (5 eqs. of 16 employed); 137% in series [1] (10 eqs. of 16 employed, degree of modification 44%).

B2: conjugate composed of L-asparaginase and substance 16: conjugate composed of the compound according to the invention substance 16 and L-asparaginase (conjugate, UniProt P00805 23-348, looked up)
L-asparaginase 2: LPNITILATGGTIAGGGDSATKSNYTVGKVGVENLVNAVPQLKDIANVKGEQVVNIGSQDMNDNVWLTLAKKINTDCDKTDGFVITHGTDTMEETAYFLDLTVKCDKPVVMVGAMRPSTSMSADGPFNLYNAVVTAADKASANRGVLVVMNDTVLDGRDVTKTNTTDVATFKSVNYGPLGYIHNGKIDYQRTPARKHTSDTPFDVSKLNELPKVGIVYNYANASDLPAKALVDAGYDGIVSAGVGNGNLYKSVFDTLATAAKTGTAVVRSSRVPTGATTQDAEVDDAKYGFVASGTLNPQKARVLLQLALTQTKDPQQIQQIFNQY
modifications: conjugated to substance 16
notes: conjugate composed of the compound according to the invention substance 16 and L-asparaginase
With B2, the Residual activity is recorded as 100% in series [2] (0.5 eqs. of 16 employed); 100% in series [2] (1 eq. of 16 employed); 92% in series [2] (2 eqs. of 16 employed); 87% in series [2] (5 eqs. of 16 employed); 75% in series [2] (10 eqs. of 16 employed, degree of modification 41%); 60% in series [2] (20 eqs. of 16 employed, degree of modification 43%).
